Experimental data as given in the Immune Epitope Database (IEDB).

How the values were obtained:
Experiment in all cases: IEDB peptide-MHC binding, purified MHC/competitive/radioactivity; filed as Kd, often an IC50 or EC50 that approximates it; ≥ and ≤ were set here for values at or beyond the usual limits of such assays
HLA-A*02:02 = biological target: HLA-A*02:02
HLA-A*02:03 = biological target: HLA-A*02:03
HLA-A*02:06 = biological target: HLA-A*02:06
HLA-A*68:01 = biological target: HLA-A*68:01
HLA-A*31:01 = biological target: HLA-A*31:01
HLA-A*33:01 = biological target: HLA-A*33:01
HLA-A*03:01 = biological target: HLA-A*03:01
HLA-A*11:01 = biological target: HLA-A*11:01
[1] = source organism: Vaccinia virus WR
[2] = source organism: Dengue virus 1 Brazil/97-11/1997
[3] = source organism: SARS coronavirus Tor2
[4] = source organism: Lymphocytic choriomeningitis virus (strain Armstrong)
[5] = source organism: Dengue virus 4 Philippines/H241/1956
[6] = source organism: Mammarenavirus guanaritoense
[7] = source organism: Dengue virus 2 Jamaica/1409/1983
[8] = source organism: Mammarenavirus brazilense
[9] = source organism: Mammarenavirus lassaense

| Sequence | Kd (HLA-A*02:02; [1]) | Kd (HLA-A*02:03; [1]) | Kd (HLA-A*02:06; [1]) | other results |
| --- | --- | --- | --- | --- |
| NIKISLNEI | 1670 nM | 31 nM | 1500 nM | – |
| SMVSAGSGEV | – | – | – | Kd (HLA-A*02:03; [2]): 144 nM |
| DTMSIYIAVA | 19.5 nM | 23.7 nM | 1480 nM | – |
| SIFVSTMPV | 37.5 nM | 6.58 nM | 81.9 nM | – |
| LVSKHWELT | 12200 nM | 14900 nM | ≥ 77100 nM | – |
| MLDDFSAGA | 68.4 nM | 73.1 nM | 114 nM | – |
| ILASFSAST | – | – | – | Kd (HLA-A*02:02; [3]): 1.62 nM; Kd (HLA-A*02:03; [3]): 5.27 nM; Kd (HLA-A*02:06; [3]): 457 nM |
| LSYSQTMLL | – | – | – | Kd (HLA-A*02:02; [4]): 2110 nM; Kd (HLA-A*02:03; [4]): 11300 nM; Kd (HLA-A*02:06; [4]): 3720 nM |
| YASLTTIGTI | 6290 nM | 398 nM | 83.6 nM | – |
| TLFYCDERDA | 271 nM | 2150 nM | 19500 nM | – |
| SLVSKHWELT | 409 nM | 34.6 nM | 2680 nM | – |
| SVKNLILNFL | 1040 nM | 163 nM | 551 nM | – |
| EAKTHFSTT | ≥ 36600 nM | ≥ 25100 nM | ≥ 55300 nM | – |
| IAIFNNRNLA | 3360 nM | 1480 nM | 890 nM | – |
| TITTFIPISA | 4060 nM | 176 nM | 4840 nM | – |
| YLSSRAKLAL | – | – | – | Kd (HLA-A*02:03; [5]): 28.1 nM |
| LLVTLAILTA | – | – | – | Kd (HLA-A*02:02; [3]): 4.39 nM; Kd (HLA-A*02:03; [3]): 42.9 nM; Kd (HLA-A*02:06; [3]): 32.2 nM |
| LQQNNSFII | 11700 nM | 5170 nM | 423 nM | – |
| KNAGYLVGR | – | – | – | Kd (HLA-A*02:02; [6]): ≥ 45600 nM; Kd (HLA-A*02:03; [6]): ≥ 78100 nM; Kd (HLA-A*02:06; [6]): ≥ 77000 nM |
| KLPTWLGAAI | 103 nM | 123 nM | 295 nM | – |
| ALVSGTATA | – | – | – | Kd (HLA-A*02:02; [3]): 4.63 nM; Kd (HLA-A*02:03; [3]): 8.1 nM; Kd (HLA-A*02:06; [3]): 269 nM |
| QLVKDESIQL | 157 nM | 130 nM | 1810 nM | – |
| NLEELTTVFI | 418 nM | 6500 nM | 12300 nM | – |
| IVILFIMFM | 1860 nM | 1680 nM | 741 nM | – |

| Sequence | Kd (HLA-A*02:02; [1]) | Kd (HLA-A*02:03; [1]) | Kd (HLA-A*02:06; [1]) | other results |
| --- | --- | --- | --- | --- |
| DLNRMPTDML | 1250 nM | 2190 nM | ≥ 47500 nM | – |
| VTLNRIKIA | 13300 nM | 407 nM | 625 nM | – |
| FMTATPPGAT | – | – | – | Kd (HLA-A*02:03; [5]): 29.4 nM |
| RLLKNMKQCT | ≥ 46800 nM | 3140 nM | 11900 nM | – |
| ITRLEVIGLT | 2210 nM | 219 nM | 967 nM | – |
| RLAANAICSA | – | – | – | Kd (HLA-A*02:03; [7]): 127 nM |
| FTHTTAFFNT | 17200 nM | 10200 nM | 51 nM | – |
| RSASGGVYL | – | – | – | Kd (HLA-A*02:02; [8]): 278 nM; Kd (HLA-A*02:03; [8]): 14500 nM; Kd (HLA-A*02:06; [8]): 13600 nM |
| LMDCIIFES | – | – | – | Kd (HLA-A*02:02; [4]): 30.1 nM; Kd (HLA-A*02:03; [4]): 825 nM; Kd (HLA-A*02:06; [4]): 300 nM |
| TIGTIAGGV | 298 nM | 17.4 nM | 1140 nM | – |
| VIVPDIKLDA | ≥ 33500 nM | ≥ 21400 nM | 883 nM | – |
| SLFPLCLSTT | – | – | – | Kd (HLA-A*02:03; [2]): 0.3 nM |
| TTTFITVLT | 2460 nM | 8590 nM | 1090 nM | – |
| WLKDSAIMV | 191 nM | 27.9 nM | 2280 nM | – |
| KQLGQVMLLI | – | – | – | Kd (HLA-A*02:06; [7]): 11 nM |
| CTSEIQNVT | 188 nM | 5180 nM | 10200 nM | – |
| GMCCIITASI | – | – | – | Kd (HLA-A*02:03; [7]): 84.1 nM |
| TVQEFIFSAL | 80.7 nM | 90 nM | 43.9 nM | – |
| FLQISRVNDL | 5.18 nM | 67.1 nM | 583 nM | – |
| FTDCRTIDAI | 9440 nM | 12800 nM | 751 nM | – |
| LLTDTIESA | 16.6 nM | 10.5 nM | 5.88 nM | – |
| SQVNPITLTA | – | – | – | Kd (HLA-A*02:06; [7]): 129 nM |
| ICKMPLPTR | – | – | – | Kd (HLA-A*68:01; [9]): 16.1 µM; Kd (HLA-A*31:01; [9]): 36.8 nM; Kd (HLA-A*33:01; [9]): 775 nM; Kd (HLA-A*03:01; [9]): ≥ 40300 nM; Kd (HLA-A*11:01; [9]): 6.03 µM |
| YIRRNMINK | – | – | – | Kd (HLA-A*68:01; [1]): 0.168 µM; Kd (HLA-A*31:01; [1]): 2370 nM; Kd (HLA-A*33:01; [1]): ≥ 21300 nM; Kd (HLA-A*03:01; [1]): 10.6 nM; Kd (HLA-A*11:01; [1]): 0.568 µM |
